T1: FcγRIIA^131H (human, UniProt P12318 34-217, biotin-labeled)
T1 construct: extracellular domain; Bought protein; also called RIIAH
T1 sequence (looked up): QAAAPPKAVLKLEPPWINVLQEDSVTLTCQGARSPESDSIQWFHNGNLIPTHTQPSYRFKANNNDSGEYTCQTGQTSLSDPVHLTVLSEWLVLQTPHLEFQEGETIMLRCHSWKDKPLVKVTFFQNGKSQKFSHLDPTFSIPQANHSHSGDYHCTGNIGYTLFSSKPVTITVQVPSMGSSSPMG

T2: FcγRIIA^131R (human, UniProt P12318 34-217, biotin-labeled)
T2 construct: extracellular domain; Bought protein; also called RIIAR
T2 sequence (looked up): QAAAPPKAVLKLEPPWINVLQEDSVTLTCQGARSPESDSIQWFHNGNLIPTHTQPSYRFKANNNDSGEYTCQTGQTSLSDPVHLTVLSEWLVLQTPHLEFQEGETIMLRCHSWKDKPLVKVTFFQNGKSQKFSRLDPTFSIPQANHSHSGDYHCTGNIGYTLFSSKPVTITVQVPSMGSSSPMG

T3: FcγRIIB (human, UniProt P31994 43-217, biotin-labeled)
T3 construct: extracellular domain; Bought protein; also called CD32b
T3 sequence (looked up): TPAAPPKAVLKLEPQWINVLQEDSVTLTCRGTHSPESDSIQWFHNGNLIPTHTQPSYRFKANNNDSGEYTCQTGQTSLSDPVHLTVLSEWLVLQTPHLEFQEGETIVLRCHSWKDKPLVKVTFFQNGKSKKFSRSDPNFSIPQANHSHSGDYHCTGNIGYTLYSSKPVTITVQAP

T4: Biotin-FcγRIIB (human FcγRIIB, Sino Biological) (human, UniProt P31994 43-217, limits assumed, biotin-labeled)
T4 construct: Used at 1 µg/ml with Streptavidin-APC for flow cytometry and sorting; also called CD32b
T4 sequence (looked up): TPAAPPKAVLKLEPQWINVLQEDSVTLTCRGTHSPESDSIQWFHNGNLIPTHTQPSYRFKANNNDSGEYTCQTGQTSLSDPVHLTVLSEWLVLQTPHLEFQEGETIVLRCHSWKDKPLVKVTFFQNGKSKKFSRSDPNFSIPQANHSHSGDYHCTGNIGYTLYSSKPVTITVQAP

T5: Biotin-FcγRIIB (human, UniProt P31994 43-217, limits assumed, biotin label)
T5 construct: Soluble labelled protein used to stain and sort the display cells; also called human FcγRIIB; CD32b
T5 sequence (looked up): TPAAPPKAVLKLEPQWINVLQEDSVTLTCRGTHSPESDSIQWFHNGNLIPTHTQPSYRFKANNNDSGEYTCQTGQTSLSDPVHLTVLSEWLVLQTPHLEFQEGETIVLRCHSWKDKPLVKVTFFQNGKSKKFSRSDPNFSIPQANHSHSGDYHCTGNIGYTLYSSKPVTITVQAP


Columns and labels:
FcγRI = target: T6, FcγRI (human, UniProt P12314 16-292, biotin-labeled); experiment: ELISA, coated antibody, biotin-FcγR
T6 construct: extracellular domain; Bought protein; also called CD64
T6 sequence (P12314 16-292): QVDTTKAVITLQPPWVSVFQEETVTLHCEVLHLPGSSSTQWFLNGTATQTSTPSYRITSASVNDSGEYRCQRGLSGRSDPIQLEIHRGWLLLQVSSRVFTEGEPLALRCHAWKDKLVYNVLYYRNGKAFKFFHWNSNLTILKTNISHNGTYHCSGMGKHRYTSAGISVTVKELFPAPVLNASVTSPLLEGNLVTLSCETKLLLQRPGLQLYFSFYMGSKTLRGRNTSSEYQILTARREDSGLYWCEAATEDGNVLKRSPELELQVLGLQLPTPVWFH
Description: (§1) One hundred μl (2 μg/mL) of antibody or mutant thereof were added to the enzyme-linked plate to be coated overnight, then the supernatant was discarded. The plate was blocked with PBS containing 1% BSA for 2 hours, and washed with PBST (PBS containing 0.05% Tween 20). Biotin-labeled FcγR extracellular domain protein (Beijing Sino Biological Co., Ltd) of appropriate concentration was added and incubated at room temperature for 1 hour, then the supernatant was discarded and the plate was washed with PBST. The Biotin-labeled protein was detected by incubating with Streptavidin-HRP (BD BioSciences) at room temperature for 1 hour. The supernatant was removed, and the color-developing solution was added for color development for 20-40 minutes to determine the absorbance of 650 nm (A650).
(§2) Anti-human OX40 antibodies containing these new Fc mutation combinations are expressed and the binding property of the mutant antibody to FcγR are analyzed by Enzyme-linked immunosorbent assay (ELISA).

FcγRIIA^131H = target: T1, FcγRIIA^131H; experiment: ELISA, coated antibody, biotin-FcγR
Description: as §1, §2

FcγRIIA^131R = target: T2, FcγRIIA^131R; experiment: ELISA, coated antibody, biotin-FcγR
Description: as §1, §2

FcγRIIB = target: T3, FcγRIIB; experiment: ELISA, coated antibody, biotin-FcγR
Description: as §1, §2

FcγRIIIA^158F = target: T7, FcγRIIIA^158F (human, UniProt P08637 17-208, biotin-labeled); experiment: ELISA, coated antibody, biotin-FcγR
T7 construct: extracellular domain; Bought protein; also called RIIIAF
T7 sequence (P08637 17-208): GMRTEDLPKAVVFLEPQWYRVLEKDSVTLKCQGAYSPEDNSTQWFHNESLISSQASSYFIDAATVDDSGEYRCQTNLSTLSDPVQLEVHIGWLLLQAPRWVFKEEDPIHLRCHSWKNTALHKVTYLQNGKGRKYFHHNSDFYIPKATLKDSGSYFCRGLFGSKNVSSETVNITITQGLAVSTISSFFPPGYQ
Description: as §1, §2

FcγRIIIA^158V = target: T8, FcγRIIIA^158V (human, UniProt P08637 17-208, biotin-labeled); experiment: ELISA, coated antibody, biotin-FcγR
T8 construct: extracellular domain; Bought protein; also called RIIIAV; CD16a 158V
T8 sequence (P08637 17-208 F176V): as the sequence (P08637 17-208) above, with F160V counted along it
Description: as §1, §2

[1] = target: T4, Biotin-FcγRIIB (human FcγRIIB, Sino …); experiment: NGS after FACS sort of 3T3-displayed LibraryMix for biotin-FcγRIIB binding
Biotin-FcγRIIB = target: T5, Biotin-FcγRIIB; experiment: NGS of 3T3 display library C2 flow-sorted for FcγRIIB binding

| Molecule | Enrichment factor (percentage after sorting/percentage before sorting) [1] | Increased factor (enrichment factor/wild-type enrichment factor) [1] | enrichment factor, percentage after 2nd sorting/percentage after 1st sorting (Biotin-FcγRIIB) [ratio] | enrichment factor, percentage after 3rd sorting/percentage after 2nd sorting (Biotin-FcγRIIB) [ratio] | percentage after 1st sorting (Biotin-FcγRIIB) [%] | percentage after 2nd sorting (Biotin-FcγRIIB) [%] | percentage after 3rd sorting (Biotin-FcγRIIB) [%] | further results |
| --- | --- | --- | --- | --- | --- | --- | --- | --- |
| IgG1 (antibody) | – | – | – | – | – | – | – | Absorbance value (FcγRI): 2.66 A650; Absorbance value (FcγRIIA^131H): 0.57 A650; Absorbance value (FcγRIIA^131R): 0.26 A650; Absorbance value (FcγRIIB): 0.76 A650; Absorbance value (FcγRIIIA^158F): 0.19 A650; Absorbance value (FcγRIIIA^158V): 0.96 A650 |
| human IgG2 anti-mouse CD40 surface displayed antibody, P271G (antibody, name in EU numbering, m1 with this Fc mutation (Eu numbering); copies: 2 + 2) light chain (with the P2A rest): DTVLTQSPALAVSPGERVTISCRASDSVSTLMHWYQQKPGQQPKLLIYLASHLESGVPARFSGSGSGTDFTLTIDPVEADDTATYYCQQSWNDPWTFGGGTKLELKRTVAAPSVFIFPPSDEQLKSGTASVVCLLNNFYPREAKVQWKVDNALQSGNSQESVTEQDSKDSTYSLSSTLTLSKADYEKHKVYACEVTHQGLSSPVTKSFNRGECGSGATNFSLLKQAGDVEENPG heavy chain: EVQLVESDGGLVQPGRSLKLPCAASGFTFSDYYMAWVRQAPTKGLEWVASISYDGSSTYYRDSVKGRFTISRDNAKSTLYLQMDSLRSEDTATYYCGRHSSYFDYWGQGVMVTVSSASTKGPSVFPLAPCSRSTSESTAALGCLVKDYFPEPVTVSWNSGALTSGVHTFPAVLQSSGLYSLSSVVTVPSSNFGTQTYTCNVDHKPSNTKVDKTVERKCCVECPPCPAPPVAGPSVFLFPPKPKDTLMISRTPEVTCVVVDVSHEDGEVQFNWYVDGVEVHNAKTKPREEQFNSTFRVVSVLTVVHQDWLNGKEYKCKVSNKGLPAPIEKTISKTKGQPREPQVYTLPPSREEMTKNQVSLTCLVKGFYPSDIAVEWESNGQPENNYKTTPPMLDSDGSFFLYSKLTVDKSRWQQGNVFSCSVMHEALHNHYTQKSLSLSPGKLEPPPSTVSNMATVAVLVVLGAAIVTGAVVAFVMKMRRRNTGGKGGDYALAPGSQTSDLSLPDCKVMVHDPHSLA | 68.9 | 92.1 | – | – | – | – | – | – |
| human IgG2 anti-mouse CD40 surface displayed antibody, V266L/S267E/H268S/E269V/P271C (antibody, name in EU numbering, As m1 with the Fc mutations) light chain (with the P2A rest): DTVLTQSPALAVSPGERVTISCRASDSVSTLMHWYQQKPGQQPKLLIYLASHLESGVPARFSGSGSGTDFTLTIDPVEADDTATYYCQQSWNDPWTFGGGTKLELKRTVAAPSVFIFPPSDEQLKSGTASVVCLLNNFYPREAKVQWKVDNALQSGNSQESVTEQDSKDSTYSLSSTLTLSKADYEKHKVYACEVTHQGLSSPVTKSFNRGECGSGATNFSLLKQAGDVEENPG heavy chain: EVQLVESDGGLVQPGRSLKLPCAASGFTFSDYYMAWVRQAPTKGLEWVASISYDGSSTYYRDSVKGRFTISRDNAKSTLYLQMDSLRSEDTATYYCGRHSSYFDYWGQGVMVTVSSASTKGPSVFPLAPCSRSTSESTAALGCLVKDYFPEPVTVSWNSGALTSGVHTFPAVLQSSGLYSLSSVVTVPSSNFGTQTYTCNVDHKPSNTKVDKTVERKCCVECPPCPAPPVAGPSVFLFPPKPKDTLMISRTPEVTCVVVDLESVDCEVQFNWYVDGVEVHNAKTKPREEQFNSTFRVVSVLTVVHQDWLNGKEYKCKVSNKGLPAPIEKTISKTKGQPREPQVYTLPPSREEMTKNQVSLTCLVKGFYPSDIAVEWESNGQPENNYKTTPPMLDSDGSFFLYSKLTVDKSRWQQGNVFSCSVMHEALHNHYTQKSLSLSPGKLEPPPSTVSNMATVAVLVVLGAAIVTGAVVAFVMKMRRRNTGGKGGDYALAPGSQTSDLSLPDCKVMVHDPHSLA | – | – | 6.97 | 12.6 | 0 | 0.01 | 0.11 | – |
| human IgG2 anti-mouse CD40 surface displayed antibody, L328M (antibody, name in EU numbering, m1 with this Fc mutation (Eu numbering); copies: 2 + 2) light chain (with the P2A rest): DTVLTQSPALAVSPGERVTISCRASDSVSTLMHWYQQKPGQQPKLLIYLASHLESGVPARFSGSGSGTDFTLTIDPVEADDTATYYCQQSWNDPWTFGGGTKLELKRTVAAPSVFIFPPSDEQLKSGTASVVCLLNNFYPREAKVQWKVDNALQSGNSQESVTEQDSKDSTYSLSSTLTLSKADYEKHKVYACEVTHQGLSSPVTKSFNRGECGSGATNFSLLKQAGDVEENPG heavy chain: EVQLVESDGGLVQPGRSLKLPCAASGFTFSDYYMAWVRQAPTKGLEWVASISYDGSSTYYRDSVKGRFTISRDNAKSTLYLQMDSLRSEDTATYYCGRHSSYFDYWGQGVMVTVSSASTKGPSVFPLAPCSRSTSESTAALGCLVKDYFPEPVTVSWNSGALTSGVHTFPAVLQSSGLYSLSSVVTVPSSNFGTQTYTCNVDHKPSNTKVDKTVERKCCVECPPCPAPPVAGPSVFLFPPKPKDTLMISRTPEVTCVVVDVSHEDPEVQFNWYVDGVEVHNAKTKPREEQFNSTFRVVSVLTVVHQDWLNGKEYKCKVSNKGMPAPIEKTISKTKGQPREPQVYTLPPSREEMTKNQVSLTCLVKGFYPSDIAVEWESNGQPENNYKTTPPMLDSDGSFFLYSKLTVDKSRWQQGNVFSCSVMHEALHNHYTQKSLSLSPGKLEPPPSTVSNMATVAVLVVLGAAIVTGAVVAFVMKMRRRNTGGKGGDYALAPGSQTSDLSLPDCKVMVHDPHSLA | 24.9 | 33.3 | – | – | – | – | – | – |
| human IgG2 anti-mouse CD40 surface displayed antibody, V266L/S267M/H268E/P271Q (antibody, name in EU numbering, As m1 with the Fc mutations) light chain (with the P2A rest): DTVLTQSPALAVSPGERVTISCRASDSVSTLMHWYQQKPGQQPKLLIYLASHLESGVPARFSGSGSGTDFTLTIDPVEADDTATYYCQQSWNDPWTFGGGTKLELKRTVAAPSVFIFPPSDEQLKSGTASVVCLLNNFYPREAKVQWKVDNALQSGNSQESVTEQDSKDSTYSLSSTLTLSKADYEKHKVYACEVTHQGLSSPVTKSFNRGECGSGATNFSLLKQAGDVEENPG heavy chain: EVQLVESDGGLVQPGRSLKLPCAASGFTFSDYYMAWVRQAPTKGLEWVASISYDGSSTYYRDSVKGRFTISRDNAKSTLYLQMDSLRSEDTATYYCGRHSSYFDYWGQGVMVTVSSASTKGPSVFPLAPCSRSTSESTAALGCLVKDYFPEPVTVSWNSGALTSGVHTFPAVLQSSGLYSLSSVVTVPSSNFGTQTYTCNVDHKPSNTKVDKTVERKCCVECPPCPAPPVAGPSVFLFPPKPKDTLMISRTPEVTCVVVDLMEEDQEVQFNWYVDGVEVHNAKTKPREEQFNSTFRVVSVLTVVHQDWLNGKEYKCKVSNKGLPAPIEKTISKTKGQPREPQVYTLPPSREEMTKNQVSLTCLVKGFYPSDIAVEWESNGQPENNYKTTPPMLDSDGSFFLYSKLTVDKSRWQQGNVFSCSVMHEALHNHYTQKSLSLSPGKLEPPPSTVSNMATVAVLVVLGAAIVTGAVVAFVMKMRRRNTGGKGGDYALAPGSQTSDLSLPDCKVMVHDPHSLA | – | – | 6.6 | 0.78 | 2.59 | 17.1 | 13.3 | enrichment factor, percentage after 1st sorting/percentage before sorting (Biotin-FcγRIIB): 229 ratio; enrichment factor, percentage after 3rd sorting/percentage before sorting (Biotin-FcγRIIB): 1180 ratio; increased factor, mutant enrichment factor/wild-type enrichment factor (Biotin-FcγRIIB): 844 ratio; percentage before sorting (Biotin-FcγRIIB): 0.01% |
